Experimental data taken from patent US20150056210A1 (ROTTAPHARM BIOTECH S R L, published 2015).

target: T1, Spacer-GST (human); assay: ELISA, Spacer-GST coated at 10 µg/mL, scFv in solution, anti-V5 detection
T1 construct: also called recombinant Spacer-ADAMTS-5-GST protein
Experimental: FIG. 3. ELISA reactivity of isolated anti-Sp_ADAMTS-5 scFvs with Spacer-GST and GST negative control. Spacer-GST and GST antigens were coated at 10 μg/mL. […] The mean absorbance at 450 nm of the experiments performed in duplicate wells is shown with SD indicated by the bars.
Nunc Maxi-Sorp Immunoplate was coated with […] Sp_ADAMTS-5-GST and GST at 10 μg/mL in coating buffer (100 mM Na₂CO₃ pH 9.6). Plate was incubated overnight at 4° C. next day, the unbound antigens were discarded and plate was washed 3× with PBS. Non-specific binding was blocked by adding […] of 3% MPBS (3% fat free milk in PBS). Plate was incubated for 1 h at RT. Plate was washed 3×TPBS (0.1% Tween20 in PBS) and 3×PBS. 100 μL of serial dilution of anti-Sp_ADAMTS-5scFv (0.5-50 μg/mL) in 3% MPBS was added to appropriate wells. Then plate was incubated for 2 h at RT. After washing with 3×TPBS and 3×PBS, 100 μL of anti-V5 antibody (Invitrogen) diluted 1:5000 in 3% MPBS was added to each well. Plate was incubated for 1 h and 30 min at RT. After washing with 3×TPBS and 3×PBS 100 μL of anti-mouse HRP (DAKO) diluted 1:2000 in 3% MPBS was added to each well. Plate was incubated for 1 h at RT. After washing with 3×TPBS and 3×PBS 80 μL of TMB (Sigma) was added. Plate was incubated in dark chamber until samples reach the desired signal. 80 μL of stopping solution (500 mM H₂SO₄) was added to each well before reading. Data were collected measuring OD(450 nm) by LD 400 Luminescence Detector (Beckman Coulter).

T1 sequence (chain, as listed by the source limits assumed): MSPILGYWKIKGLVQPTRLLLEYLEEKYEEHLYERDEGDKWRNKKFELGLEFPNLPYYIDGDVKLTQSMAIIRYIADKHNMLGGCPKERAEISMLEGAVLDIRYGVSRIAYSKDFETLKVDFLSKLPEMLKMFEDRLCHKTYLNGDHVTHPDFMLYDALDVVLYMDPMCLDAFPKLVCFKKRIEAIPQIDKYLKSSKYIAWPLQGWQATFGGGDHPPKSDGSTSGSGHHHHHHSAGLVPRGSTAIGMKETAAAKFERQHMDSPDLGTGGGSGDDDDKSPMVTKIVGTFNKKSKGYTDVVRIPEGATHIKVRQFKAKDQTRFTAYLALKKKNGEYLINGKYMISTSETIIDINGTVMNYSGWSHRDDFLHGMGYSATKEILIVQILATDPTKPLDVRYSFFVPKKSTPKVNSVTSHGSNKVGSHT

Row | Binder | binding result
1 | CRB0017 scFv (scFv, detected in ELISA with an anti-V5 antibody, tag not described; also called clone M6) scFv: DIVITQDELSNPVTSGESVSISCRSSKSLLYKDGKTYLYWFLQRPGQSPQLPIYLMSTRASGVSDRFSGSGSGTDFTLEISRVKAEDVGVYYCQQLVEYPYTFGGGTKLEIKRSGGSTRGSGKPGSGEGSSGTQVQLQQSGAELAKPGASVKMSCKASGYTFTSYWMHWVKQRPGQGLEWIGYINPSTGYTEYNQKFKDKATLTADKSSSTAYMQLGSLTSEDSAVYYCARGGYDDLGYWGQGTTLTVSS | binds
2 | CRB0123 scFv (scFv, VP16 fusion in the yeast selection; also called clone S50) scFv: QVQLQESGGGVVQPGRSLRLSCAASGFTFSGYGMNWVRQAPGTGLEWVATISFDGTDKYYADSVKGRFTISRDNAENTLYLQMNSLRAEDMAVYYCARDWSYAMDVWGQGTMVTVSSSGGSTSGSGKPGSGEGSSGTDIQMTQSPSSVSASVGDRVTITCRPSQGIGKYSAWYQQKPGKAPELPIYLASTLQSGVPSRFSDSGSGTEFTLTISSLQPEDFATYYCLQRNTYPWTFGQGTKVEIK | binds
3 | CRB0124 scFv (scFv, VP16 fusion in the yeast selection; also called clone S53a) scFv: QVQLVQSGSDVKKPGASVRVSCKVSGYRLTEYPIHWVRQAPGKGLEYMGGFDLENGVTKAAPRFRGRFTMTEDTSTDSVYMELKSLTSEDTAVYYCVKGPGYGALVTSFTSWGLGTTVTVSSSGGSTSGSGKPGSGEGSSGTSYVLTQPPSVSVSPGQTASITCSGDKLEDKYACWYQQKPGQSPVLVIYHDYKRPSGIPERFSGSNSGNTATLTISRVEGGDEADYYCQVWDSGSDDQVFGGGTKLTVL | binds
4 | CRB0018 scFv (scFv, VP16 fusion in the yeast selection; also called clone 7A (mSPLINT)) scFv: DIVMTQSPASLAVSQGQRATISCRASESVDSYGNSFMHWYQQKPGQPPKLPIYLASNLESGVPARFSGSGSRTDFTLTIDPVEADDAATYYCQQNNEELTFGAGTKLELKRSGGSTSGSGKPGSSEGSSGTEVKLLESGGGLVQPGGSLKLSCTTSGFDFSRYWMSWVRQAPGKGLEWIGEINPDSSTINYTPSLKDKFIISRDNAKNTLYLQMSKVRSEDTALYYCARRSYWYFDVWGAGTSVTVSS | binds
5 | CRB0019 scFv (scFv, VP16 fusion in the yeast selection; also called clone 14) scFv: DIVMTQSHKFMSTSEGDRVSITCKASQDVGTAVAWYQQKPGQSPKLLIYWASTRHTGVPDRFTGSGSGTDFTLTISNVQSEDLADYICQQYCSHPYTFGAGTKLEIKRSGGSTSGSGKPGSGEGSRGTQVQLQQSGAEPVKPGASVKLSCTASGFNIKDTYMHWVKQRPEQGLEWIGRIDPAHGRTKYDPKFQGKATITADTSSNTAYLQLSSLSSEDTAVYYCAFYSYAIDYWGQGTSVTVSS | binds
6 | CRB0091 scFv (scFv, VP16 fusion in the yeast selection; also called clone 7A (huSPLINT_09)) scFv: DIVMTQSPSSLSASVGDRVTITCRASQAIGNDLAWYQQRPGKAPKRLIYGASTLSSGVPSRFSGSGSGTEFTLTISSLQPDDFATYYCQQYNNFPYTFGLGTKVEIKSGGSTSGSGKPGSGEGSSGTQVQLQQWGAGLLKPSETLSLTCAVHGGSFSGNFWSWVRQHPGKGLEWIGEVNHRGSATYNPSLKSRVTMSVDTSKNQFSLQLSSVTAADTAVYYCARKLPRRRAEDRPSSLRPFDYWGQGTLVTVSS | binds
7 | CRB0092 scFv (scFv, VP16 fusion in the yeast selection; also called clone C21) scFv: QSVVTQPPSVSGAPGQRVTISCTGSSSNIGAGYDVHWYQQLPGTAPKLLIYGNDNRPSGVPDRFSGSKSGTSASLAITGLQAEDEADYYCQSYDNSLSGYAVFGGGTQLTVLSGGSTSGSGKPGSGEGSSGTQVQLVESGGGLVQPGGSLRLSCAASGFRFSSHDMHWVRQVPGKGLEWVSRIGTVGDTYYADSVKGRFTISRDNSKNTLFLQMNSLGAEDTAVYYCARDGTRYCSRTSCHSGYYYYGMDVWGQGTTVTVSS | binds
8 | CRB0094 scFv (scFv, VP16 fusion in the yeast selection; also called clone 48B) scFv: QSVLTQPPSASGSPGQSVTISCTGTSSDVGGYNYVSWYQQHPGKAPKLLIYDVSNRPSGVSSRFSGSKSGNSASLTISGLQAEDEADYYCSSYTRRSTLEFGGGTKLTVLSGGSTSGSGKPGSGEGSSGTQVQLQQWGAGLLKPSGTLSLTCAVYGGSFSGYYWSWIRQPPGKGLEWIGEINHSGSTNYNPSLKSRVTISVDTSKNQFSLKLSSVTAADTAVYYCARTIWSTRHDFWSGYYSSNWFDPWGQGTLVTVSS | binds
9 | CRB0102 scFv (scFv, VP16 fusion in the yeast selection; also called clone 15A) scFv: EVQLVESGSDVKKPGASVRVSCKVSGYRLTEYPIHWVRQAPGKGLEYMGGFDLENGVTKAAPRFRGRFTMTEDTSTDSVYMELKSLTSEDTAVYYCVKGPGYGALVTSFTSWGLGTLVTVSSSGGSTSGSGKPGSGEGSSGTETTLTQSPAFMSATPGDKIYISCKASQDIDDDMNWYQQKPGEAAIFIIQEATTLVPGIPPRFSGSGYGTDFTLTINNMESEDAAYYFCPQQDNVPLTFGGGTKVDIK | binds
10 | CRB0122 scFv (scFv, VP16 fusion in the yeast selection; also called clone S39) scFv: QVQLQESGGGLVRPGGSLRLSCAASGFTFSSYAMTWVRQAPGKGLEWVSAISGSGDSTYYADSVKGRFTISRDNSKNTLYLQMDSLRVEDTAVYYCARDRDLLHKDGFDIWGQGTMVTVSSSGGSTSGSGKPGSGEGSSGTQSVLTQPPSASASLGASVTLTCTLSSGYSNYKVDWYQQTPGKGPRFVMRVGTGGTVGSKGDGIPDRFSVLGSGLNRYLIIKNIQEEDETDYHCGADHGSGSNFVYVFGSGTKVTVL | binds

target: T1, Spacer-GST; assay: SPR (Biacore X-100), CRB0017_IgG4 immobilised on CM5 chip, Spacer-GST in solution, KD1

Row | Binder | Kd
11 | CRB0017_IgG4 (antibody, V domains shown, Chimeric IgG: murine variable domains on human constant domains (Fc from human IgG4, kappa light chain), made in CHO-S cells; also called mAb CRB0017; CRB017 IgG4) VH: QVQLQQSGAELAKPGASVKMSCKASGYTFTSYWMHWVKQRPGQGLEWIGYINPSTGYTEYNQKFKDKATLTADKSSSTAYMQLGSLTSEDSAVYYCARGGYDDLGYWGQGTTLTVSS VL: DIVITQDELSNPVTSGESVSISCRSSKSLLYKDGKTYLYWFLQRPGQSPQLPIYLMSTRASGVSDRFSGSGSGTDFTLEISRVKAEDVGVYYCQQLVEYPYTFGGGTKLEIK | ~2 nM

target: T1, Spacer-GST; assay: sandwich ELISA with Spacer-GST, data not shown

Row | Binder | binding result
12 | monoclonal antibody CRB0102 (antibody, V domains shown, also called CRB0102 IgG4) VH: EVQLVESGSDVKKPGASVRVSCKVSGYRLTEYPIHWVRQAPGKGLEYMGGFDLENGVTKAAPRFRGRFTMTEDTSTDSVYMELKSLTSEDTAVYYCVKGPGYGALVTSFTSWGLGTLVTVSS VL: ETTLTQSPAFMSATPGDKIYISCKASQDIDDDMNWYQQKPGEAAIFIIQEATTLVPGIPPRFSGSGYGTDFTLTINNMESEDAAYYFCPQQDNVPLTFGGGTKVDIK | binds
13 | CRB0123_IgG4 (antibody, V domains shown, also called mAb CRB0123; monoclonal antibody CRB0123) VH: QVQLQESGGGVVQPGRSLRLSCAASGFTFSGYGMNWVRQAPGTGLEWVATISFDGTDKYYADSVKGRFTISRDNAENTLYLQMNSLRAEDMAVYYCARDWSYAMDVWGQGTMVTVSS VL: DIQMTQSPSSVSASVGDRVTITCRPSQGIGKYSAWYQQKPGKAPELPIYLASTLQSGVPSRFSDSGSGTEFTLTISSLQPEDFATYYCLQRNTYPWTFGQGTKVEIK | binds

target: T1, Spacer-GST; assay: SPR (Biacore), Spacer-GST immobilised, CRB0017_IgG4 in solution, bivalent binding model, KD2, data not shown

Row | Binder | Kd
14 | CRB0017_IgG4 (antibody, V domains shown, Chimeric IgG: murine variable domains on human constant domains (Fc from human IgG4, kappa light chain), made in CHO-S cells; also called mAb CRB0017; CRB017 IgG4) VH: QVQLQQSGAELAKPGASVKMSCKASGYTFTSYWMHWVKQRPGQGLEWIGYINPSTGYTEYNQKFKDKATLTADKSSSTAYMQLGSLTSEDSAVYYCARGGYDDLGYWGQGTTLTVSS VL: DIVITQDELSNPVTSGESVSISCRSSKSLLYKDGKTYLYWFLQRPGQSPQLPIYLMSTRASGVSDRFSGSGSGTDFTLEISRVKAEDVGVYYCQQLVEYPYTFGGGTKLEIK | 7 nM
